Target: HIV-1 integrase tagged at the C-terminus with the HA epitope (IN-HA) (HIV-1 (Lai molecular clone))
Assay: cross-linking; gel filtration fractions 30-32 (IN complex III) of extracts of infected LEDGF/p75 knock-down TL34 cells, 2 h p.i.; 0.25 to 2 mM EGS, 30 min at room temperature, 20 mM HEPES-KOH pH 7.2, 0.3 M KCl; SDS-PAGE and anti-HA-HRP blot

## HIV-1 integrase tagged at the C-terminus with the HA epitope (IN-HA) (enzyme)
  stoichiometry N: 4

Source: paper PMC3571920
